Read-outs that look alike come from different tables or passages of the source.
Legend:
B. thetaiotaomicron = assay: Minimum inhibitory concentration of polymyxin B with CRISPRi against BT1854; type: cell-based
From the text: FIGS. 4A-4F. CRISPRi-mediated repression of recombinant and endogenous genes. (FIG. 4A) Schematic of dCas9-based repression of NanoLuc. LacI^Q is expressed from PBT1311 and represses transcription from the PLacO23 promoter. Addition of IPTG inactivates LacI^Q to allow expression of dCas9 from PLacO23 dCas9 complexes with guide RNA (sgRNA) constitutively expressed from the P1 promoter to prevent the transcription of NanoLuc from the PcfiA promoter. Guide RNAs were designed to target the coding sequence of NanoLuc (NL1-4) or the PcfiA promoter (PR1-2). (FIG. 4B) Response curves of dCas9-mediated targeting the coding sequence of NanoLuc (NL1-4), the promoter (PR1-2) or a nonsense sequence (NS). Fourfold serial dilutions of IPTG starting at 500 μM or no inducer were added to cultures. Response curves were fit to a Hill Function (solid lines). (FIG. 4C) Fold repression elicited by various gRNAs in the presence (500 μM) of inducer. Bars are colored to correspond to part B. (FIG. 4D) Genomic location of endogenous genes targeted using CRISPRi. […]
Resistance to inflammation-associated cationic antimicrobial peptides, such as polymyxin B, is essential for the stability of commensal organisms in the dynamic gut environment. […] Using the minimum inhibitory concentration (MIC) of polymyxin B as a phenotypic readout, an sgRNA was designed to specifically suppress BT1854 expression.

NanoLuc [1] = assay: Response curves of inducible promoters driving NanoLuc; type: cell-based, B. thetaiotaomicron; settings: for change in gene expression on induction: IPTG induction
Method: FIGS. 2A-2E. Design and characterization of genetic sensors. (FIGS. 2A-2D) Response curves for NanoLuc under the regulated control of the rhamnose—(Rha) (FIG. 2A), chondroitin sulfate—(ChS) (FIG. 2B), arabinogalactan—(AG) (FIG. 2C), or IPTG—(FIG. 2D) inducible promoters. LacO1 operator sites were inserted in various regions (O1, O2, O3) of the PcfxA promoter (see also FIGS. 7A-7B). Inducer concentrations were applied as follows: three-fold serial dilutions starting at 10 mM Rha (FIG. 2A); three-fold serial dilutions starting at 0.4% for ChS (FIG. 2B) and AG (FIG. 2C); and four-fold serial dilutions starting at 500 μM for IPTG (FIG. 2D). The leftmost data point in each plot represents the background luminescence in the absence of inducer. Response curves were fit to a Hill function (solid lines). (FIG. 2E) Orthogonality matrix of sugar-inducible genetic systems incubated with 10 mM rhamnose (Rha), 0.2% chondroitin sulfate (ChS), 0.2% arabinogalactan (AG), or 100 mM IPTG compared to no inducer. Error bars represent the standard deviation of three biological replicates made on different days.
FIGS. 7A-7B. Synthetic IPTG-inducible promoters. (FIG. 7A) Synthetic IPTG-inducible promoters were constructed by placing LacO1 operator sites (red) upstream of the −33 element (O1), between the −33 and −7 elements (O2) and/or directly downstream of the transcription start site (O3) of the strong PcfxA promoter. Predicted −33, −7 and +1 sites are shown in bold. These promoters are regulated by the E. coli LacIQ repressor expressed from PBT1311. FIG. 7A depicts SEQ ID NOs: 217 to 220 from top to bottom, respectively. (FIG. 7B) Response curves for the synthetic IPTG-inducible systems. Cells were incubated with no inducer or four-fold serial dilutions of IPTG starting at 500 μM. Data sets for PLacO13 and PLacO23 were fit to a Hill function (solid line). Error bars represent the standard deviation of three biological replicates made on three different days (n=3).
To create inducible systems for use in B. thetaiotaomicron, parts from a large repertoire of systems that govern carbohydrate utilization were used, which included cytoplasmic transcription factors, extracytoplasmic function sigma/anti-sigma pairs, and hybrid two-component systems (HTCS), among others (64). In B. thetaiotaomicron, rhamnose metabolism is mediated by the AraC/XylS-family transcriptional activator, RhaR, which activates transcription at the PBT3763 promoter (Patel E H, et al. Res. Microbiol. 159:678-84, 2008). To assay the functionality of PBT3763 as an inducible system, 250 bp of the promoter-RBS region was cloned upstream of the start codon of BT3763 into the pNBU2 expression vector to drive expression of NanoLuc.
Two-component systems are signal-transduction mechanisms widespread in bacteria for sensing external stimuli. […] Putative HTCSs, BT3334 and BT0267, were identified in transcriptomic studies to control expression of the chondroitin sulfate (ChS)-inducible PBT3324 promoter and arabinogalactan (AG)-inducible PBT0268 promoter, respectively (64, 83). The promoter regions upstream of the BT3324 and BT0268 genes were used as the basis for two polysaccharide sensors. Chondroitin sulfate induction of PBT3324 and arabinogalactan induction PBT0268 led to a 60-fold and 29-fold regulation of output gene expression, respectively (FIGS. 2B and 2C).
Next, an IPTG-inducible system was developed. Pairs of LacO1 operator sites were inserted in the strong PcfxA promoter in three locations: upstream of the −33 element (O1), between the −33 and −7 elements (O2) or just downstream of the transcription start site (O3) (FIGS. 7A-7B). The LacI^Q repressor was expressed from the strong BT1311 promoter to achieve tight control of NanoLuc expression. Compared to the unmodified PcfxA promoter, the addition of synthetic operator sites diminished the maximum expression of NanoLuc (FIGS. 7A-7B). […]

NanoLuc [2] = assay: Luciferase activity in fecal pellets of mice colonized with arabinogalactan-inducible P0268 strain; type: in vivo, Swiss Webster mice
Method: FIGS. 5A-5D. In vivo function of genetic parts within B. thetaiotaomicron colonizing the mouse gut. (FIG. 5A) Experimental timeline. Specific pathogen free (SPF) Swiss Webster mice were treated for 10 days with ciprofloxacin and metronidazole and gavaged with B. thetaiotaomicron 2 days after cessation of treatment. […] Mice were provided drinking water supplemented with 5% arabinogalactan (FIG. 5B: solid line), or 25 mM IPTG (FIG. 5C: solid line) after stool collection on Day 2 (grey box), or were maintained on normal drinking water throughout the entire experiment (dashed lines). Inducer water was removed on Day 4 after stool collection. Grey boxes indicate the period of time that mice were exposed to inducer-supplemented drinking water. Luminescence values were normalized to cell density as determined by qPCR using NanoLuc-specific primers. (FIG. 5D) SPF mice were colonized with B. thetaiotaomicron containing the rhamnose-inducible integrase construct P3763-rpiL*C51-Int12. […] Absolute quantities of flipped and unflipped memory array in fecal DNA were determined by qPCR using standard curves (Experimental Procedures). Recombination frequency is expressed as the ratio of cells containing a flipped memory array (Flipped) divided by the sum total of cells containing a flipped or unflipped array (Total). […]

[3] = IPTG inducer, LacIQ expressed from BT1311 promoter, read-out: threshold K

Molecule: polymyxin B
- decrease in MIC compared to WT and dCas9NS control (B. thetaiotaomicron; dCas9BT1854 cells, dCas9 induced with IPTG): 8 to 16 fold
- polymyxin B resistance (B. thetaiotaomicron; dCas9NS strains, presence or absence of IPTG induction, similar to WT): high levels of polymyxin B resistance

B1: PLacO13: Synthetic IPTG-inducible promoter + RBS, SEQ ID NO: 148 (nucleic acid)
DNA: TTACAAAGAAAATTCGACAAACTGTTATTTTTCTATCTATTTAAATTGTGAGCGGATAACAATTTGGGTGGGAAACTTTAGTTATGTACCTTTGTCGGCAATTGTGAGCGGATAACAATTAAATAAAGATATTCTCGTCAAACAAATATAAATAATATAAAC
- EC50 (NanoLuc [1]; [3]): 86 µM
- change in gene expression on induction (NanoLuc [1]): 8 fold

B2: PBT3324: Chondroitin-sulfate inducible promoter + RBS, SEQ ID NO: 145 (nucleic acid)
DNA: TATTTATAAGAGATAGCACATAATTTGAACTATTTTGTACGATTTGAACCCCTCTTTCCAACAAAAGAGGGGTTTCTTTGCATTCGGGAGAAGAACAAGTGATCTCTCTCTGTAAATACCGGCTAATGATAAACCGATTTACCATCGGACCTAAAACGATATATTCTATGATAAAGCAATCTTTTACTCTGTCAGTGACA
- regulation of output gene expression (NanoLuc [1]; chondroitin sulfate induction): 60 fold

B3: PBT0268: Arabinogalactan inducible promoter + RBS, SEQ ID NO: 146 (nucleic acid)
DNA: TAAAATACACAAGTACGCGTCTTAATGGAAGATGCGTACTTTTCCATATATCAATGATCTATCCCATTTGAATGATTCCTGAACTTATATTGAACGATTTTTAGACCTGTTATAGTTAATAGCGATTATGGTCCAATTTTGGAAGTTTTTGAATGATTAGAGAACTTCTTTCTACTGGATAACTCGCACTTTTGTGACGCATTTGATGCACAACTAATACTTATTTGGTCTAAATAACTTTATAAATCTAATAGT
- luciferase activity after removal of inducer from drinking water (NanoLuc [2]; fecal pellets): rapidly returned to baseline
- increase of luciferase activity in fecal pellets (NanoLuc [2]; within a day of arabinogalactan in drinking water): approximately 75 fold
- regulation of output gene expression (NanoLuc [1]; arabinogalactan induction): 29 fold

B4: PBT3763: Rhamnose inducible promoter + RBS, SEQ ID NO: 144 (nucleic acid)
DNA: TATTTCGGAGAAAACATGCATAAATCATGCTTTTTTTGCATAAAAAGTAAAATTTATACTGATGTAAGGTTTGGCTATGCAGATTTGTGTCAAAATGCACATCCTTTCTATCAAAATGCGTAAGGAAAAGGAGGAAGGAACCGCCTATCTTTGCAATGTAGGTAAATGGATACCTTAAATATATAGACAAAATACC
- Hill coefficient n (NanoLuc [1]; rhamnose inducer): 1.4
- EC50 (NanoLuc [1]; rhamnose inducer, read-out: threshold K (Hill function fit)): 300 µM
- output dynamic range (NanoLuc [1]; rhamnose induction, NanoLuc): 104 fold

B5: PLacO23: Synthetic IPTG-inducible promoter + RBS, SEQ ID NO: 149 (nucleic acid)
DNA: TTACAAAGAAAATTCGACAAACTGTTATTTTTCTATCTATTTATTTGAATTGTGAGCGGATAACAATTACCTTTGTCGGCAATTGTGAGCGGATAACAATTAAATAAAGATATTCTCGTCAAACAAATATAAATAATATAAAC
- EC50 (NanoLuc [1]; [3]): 6 µM
- change in gene expression on induction (NanoLuc [1]): 22 fold
